# Experimental data from PMC13360575.
# Substitutions are numbered along the chain they refer to.
# B1: Fab fragment of a high-affinity variant of clone 2.1 (2.1^hi) (Fab, V domains shown)
# VH: EVQLQESGPSLVKPSQTLSLTCSVTGASITSGYWNWIRKFPGNRLEYMGYISYSGGTYYNPSLKSRISITRDTSKNQYYLQLNSVTTEDTATYYCARDFDVWGAGTTVTVSS
# VL: DIVMTQSQKFMSTSVGDRVSVTCKASQNVGTNVGWFQQKPGQSPKSLIYSASYRYSGVPDRFTGSGSGTDFTLTISNVQSEDLAEYFCHQYYSYPLTFGSGTKLEIK
# B2: clone 2.1 Fab CB_02 (clonal burst) (Fab, V domains shown)
# VH: B1 VH with A27D, R44K, G56S, A96G
# VL: B1 VL with F36Y, S46A, H89Q, Y92N
# B3: clone 2.1 Fab TA_10 (Fab, V domains shown)
# VH: B1 VH with A27D, K39R, R44K, G56S
# VL: B1 VL with G34A, F36Y, S46A, H89Q, Y92N
# B4: clone 2.1 Fab CB_10 (clonal burst) (Fab, V domains shown)
# VH: B1 VH with A27D, R44K, G56S, A96G
# VL: B1 VL with F36Y, S46A, H89Q, Y92N, S93R
# B5: clone 2.1 Fab TA_22 (Fab, V domains shown)
# VH: B1 VH with A27D, R44K, G56S
# VL: B1 VL with G34A, F36Y, S46A, H89Q, Y92S
# B6: clone 2.1 Fab TA_19 (Fab, V domains shown)
# VH: B1 VH with A27D, R44K, G56S
# VL: B1 VL
# B7: clone 2.1 Fab CB_05 (clonal burst) (Fab, V domains shown)
# VH: B1 VH with A27D, R44K, G56S, A96G
# VL: B1 VL with G34A, F36Y, S46A, H89Q, Y92N
# B8: clone 2.1 Fab TA_26 (Fab, V domains shown)
# VH: B1 VH with A27D, R44K, G56S
# VL: B1 VL with G34A, F36Y, S46A, H89Q, Y92D
# B9: clone 2.1 Fab CB_01 (clonal burst) (Fab, V domains shown)
# VH: B1 VH with A27D, R44K, G56S, I69F
# VL: B1 VL with G34A, F36S, S46A, H89Q, Y92K
# B10: 2.1^hi Fab, high-affinity variant of clone 2.1 (Fab, V domains shown)
# VH: B1 VH
# VL: B1 VL
# B11: clone 2.1 Fab TA_2 (Fab, V domains shown)
# VH: B1 VH with A27D, R44K, G56S
# VL: B1 VL with F36Y, S46A, H89Q, Y92N
# B12: clone 2.1 Fab TA_14 (Fab, V domains shown)
# VH: B1 VH with A27D, R44K, G56S
# VL: B1 VL with G34A, F36Y, H89Q, Y92N
# B13: clone 2.1 Fab TA_5 (Fab, V domains shown)
# VH: B1 VH with R44K, G56S
# VL: B1 VL with G34A, F36Y, S46A, H89Q, Y92N
# B14: clone 2.1 Fab, unmutated (Fab, V domains shown)
# VH: B1 VH with A27D, R44K, G56S
# VL: B1 VL with G34A, F36Y, S46A, H89Q, Y92N
# B15: clone 2.1 Fab TA_15 (Fab, V domains shown)
# VH: B1 VH with A27D, R44K, G56S
# VL: B1 VL with G34A, F36Y, S46A, Y49F, H89Q, Y92N
# B16: clone 2.1 Fab L_11 (affinity ladder) (Fab, V domains shown)
# VH: B1 VH with A27D, R44K, G56S, K75T, Y94F
# VL: B1 VL with F36Y, S46A, H89Q, Y92N
# B17: clone 2.1 Fab TA_24 (Fab, V domains shown)
# VH: B1 VH with A27D, R44K, G56S
# VL: B1 VL with G34A, F36Y, S46A, H89Q
# B18: clone 2.1 Fab TA_4 (Fab, V domains shown)
# VH: B1 VH with A27D, R44K, G56S
# VL: B1 VL with G34V, F36Y, S46A, H89Q, Y92D
# B19: clone 2.1 Fab TA_23 (Fab, V domains shown)
# VH: B1 VH with A27D, R44K, G56S
# VL: B1 VL with G34A, F36Y, S46A, Y92N
# B20: clone 2.1 Fab CB_07 (clonal burst) (Fab, V domains shown)
# VH: B1 VH with A27D, R44K, G56S, A96G
# VL: B1 VL with G34A, F36Y, S46A, H89Q, Y92K
# B21: clone 2.1 Fab TA_25 (Fab, V domains shown)
# VH: B1 VH with A27D, R44K, G56S
# VL: B1 VL with G34A, F36Y, S46A
# B22: clone 2.1 Fab TA_1 (Fab, V domains shown)
# VH: B1 VH with A27D, Y53F, G56S
# VL: B1 VL with F36Y, S46A, H89Q, Y92N
# B23: clone 2.1 Fab TA_13 (Fab, V domains shown)
# VH: B1 VH with A27D, R44K, G56S
# VL: B1 VL with S46A
# B24: clone 2.1 Fab L_10 (affinity ladder) (Fab, V domains shown)
# VH: B1 VH with S10G, A27D, R44K, G56S, I67V, Y78H, A96G
# VL: B1 VL with G34A, F36Y, S46A, H89Q, Y92K
# B25: clone 2.1 Fab TA_16 (Fab, V domains shown)
# VH: B1 VH with A27D, R44K, G56S
# VL: B1 VL with F36Y, Y49F, H89Q, Y92N
# B26: clone 2.1 Fab TA_27 (Fab, V domains shown)
# VH: B1 VH with A27D, G56S
# VL: B1 VL with H89Q, Y92S
# B27: clone 2.1 Fab TA_3 (Fab, V domains shown)
# VH: B1 VH with A27D, R44K, G56S
# VL: B1 VL with G34V, F36Y, S46A, H89Q, Y92N
# B28: clone 2.1 Fab TA_12 (Fab, V domains shown)
# VH: B1 VH with A27D, R44K, G56S
# VL: B1 VL with G34A, S46A, H89Q, Y92N
# B29: clone 2.1 Fab TA_11 (Fab, V domains shown)
# VH: B1 VH with A27D, G56S
# VL: B1 VL with G34A, F36Y, S46A, H89Q, Y92N
# B30: clone 2.1 Fab TA_28 (Fab, V domains shown)
# VH: B1 VH with A27D, R44K
# VL: B1 VL with G34A, F36Y, S46A, H89Q, Y92N
# Biological target: chicken IgY (chicken)
# Test: BLI; Octet, SAX (streptavidin) biosensors; Fabs at multiple concentrations; KD from a kinetic 1:1 model, global fits (R^2 > 0.98); as described previously (ref. 7)
row,Kd,Binder
1,0.062 nM,B1

# Biological target: chicken IgY (chicken)
# Test: BLI; Octet, SAX (streptavidin) biosensors; recombinant Fabs against IgY; KD from a kinetic 1:1 model, global fit over multiple concentrations (partial fits averaged for 3 low-affinity Fabs)
Kd,koff,kon,Binder
0.507 nM,0.000123 s⁻¹,244000 M⁻¹ s⁻¹,B2
22.3 nM,0.0034 s⁻¹,152000 M⁻¹ s⁻¹,B3
0.127 nM,3.73e-05 s⁻¹,294000 M⁻¹ s⁻¹,B4
14.9 nM,0.00124 s⁻¹,83500 M⁻¹ s⁻¹,B5
0.261 nM,8.66e-05 s⁻¹,331000 M⁻¹ s⁻¹,B6
6.76 nM,0.00149 s⁻¹,221000 M⁻¹ s⁻¹,B7
58.5 nM,0.00803 s⁻¹,137000 M⁻¹ s⁻¹,B8
3.77 nM,0.000398 s⁻¹,105000 M⁻¹ s⁻¹,B9
,6.34e-05 s⁻¹,1.03e+06 M⁻¹ s⁻¹,B10
4.21 nM,0.000383 s⁻¹,90900 M⁻¹ s⁻¹,B11
6.25 nM,0.00139 s⁻¹,223000 M⁻¹ s⁻¹,B12
3.81 nM,0.000858 s⁻¹,225000 M⁻¹ s⁻¹,B13
26 nM,0.00226 s⁻¹,86700 M⁻¹ s⁻¹,B14
14.4 nM,0.00168 s⁻¹,116000 M⁻¹ s⁻¹,B15
1.83 nM,0.00011 s⁻¹,59800 M⁻¹ s⁻¹,B16
7.72 nM,0.000911 s⁻¹,118000 M⁻¹ s⁻¹,B17
71.1 nM,0.00792 s⁻¹,111000 M⁻¹ s⁻¹,B18
13.3 nM,0.00133 s⁻¹,100000 M⁻¹ s⁻¹,B19
1.34 nM,0.000349 s⁻¹,261000 M⁻¹ s⁻¹,B20
3.2 nM,0.000412 s⁻¹,129000 M⁻¹ s⁻¹,B21
2.84 nM,0.000359 s⁻¹,126000 M⁻¹ s⁻¹,B22
0.549 nM,0.000119 s⁻¹,216000 M⁻¹ s⁻¹,B23
1.21 nM,0.000462 s⁻¹,381000 M⁻¹ s⁻¹,B24
1.49 nM,0.000329 s⁻¹,221000 M⁻¹ s⁻¹,B25
0.28 nM,0.000203 s⁻¹,724000 M⁻¹ s⁻¹,B26
54 nM,0.00767 s⁻¹,142000 M⁻¹ s⁻¹,B27
22.7 nM,0.00408 s⁻¹,180000 M⁻¹ s⁻¹,B28
21.6 nM,0.00331 s⁻¹,153000 M⁻¹ s⁻¹,B29
22 nM,0.00309 s⁻¹,140000 M⁻¹ s⁻¹,B30
